This is an account of results in article PMC5301203.

Experiment [1] has as its target group-3 dockerin D37, thioredoxin-fused (pETG-20A) (Ruminococcus flavefaciens FD-1). The experiment can be described thus: ITC; thioredoxin-fused dockerin (20-30 uM) in the cell, cohesin (80-180 uM) injected; 308.16 K; 50 mM Na-HEPES pH 7.5, 2 mM CaCl2, 0.5 mM TCEP; single-site model. (In general: ITC needs no label: the signal is the heat of the interaction.)
Experiment [2] addresses group-6 dockerin D61, thioredoxin-fused (pETG-20A) (Ruminococcus flavefaciens FD-1). Described as above.
Experiment [3] deals with ScaE cohesin of R. flavefaciens FD-1. The experiment can be described thus: ELISA. Conditions: read off a plot. Background: In an ELISA, binding on a coated surface is turned into a signal by an enzyme label.
In experiment [4] the target is group-2 dockerin D35 (ZP_06143271), thioredoxin-fused (pETG-20A) (Ruminococcus flavefaciens FD-1). Briefly: ITC; thioredoxin-fused dockerin (20-30 uM) in the cell, cohesin (80-180 uM) injected; 308.16 K; 50 mM Na-HEPES pH 7.5, 2 mM CaCl2, 0.5 mM TCEP; single-site model.
Experiment [5] addresses ScaH dockerin D49, thioredoxin-fused (pETG-20A) (Ruminococcus flavefaciens FD-1). Described as above.
Experiment [6] deals with dockerin D61 (group 6) of R. flavefaciens FD-1 (Ruminococcus flavefaciens FD-1). The experiment can be described thus: ITC; 10-uL aliquots of 80-180 uM cohesin injected into 20-30 uM thioredoxin-fused dockerin; 308.16 K; 50 mM Na-HEPES pH 7.5, 2 mM CaCl2, 0.5 mM TCEP; single-site model.
Experiment [7] addresses dockerin D37 (group 3) of R. flavefaciens FD-1 (Ruminococcus flavefaciens FD-1). The experiment is described as above.

A word on the stoichiometry N: it is the number of molecules, sites or subunits per partner or assembly.

Sequence of ScaH dockerin D49, thioredoxin-fused (pETG-20A) (Ruminococcus flavefaciens FD-1) (main, as listed by the source): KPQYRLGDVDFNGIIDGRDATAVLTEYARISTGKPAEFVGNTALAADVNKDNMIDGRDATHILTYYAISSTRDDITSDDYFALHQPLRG

For “ScaC cohesin, His-tagged (pET21a) (domain or fragment)”, the values for the Ka in experiment [1] and in experiment [2] were 2.69e+08 M⁻¹ and 3.54e+08 M⁻¹, respectively.

With “dockerin of the peptidase ZP_06142181 (Peptidase-UNK-Doc) G50A; R51A”, the other: pEC50 in experiment [3] (parent: est. 8.6) stood at 8.2.

Turning to “dockerin of ScaH, ZP_06142361 (Coh-Doc) G11A; R12A”, the other: pEC50 in experiment [3] (parent: est. 10.2) came out at 10.

As to “ScaE cohesin, His-tagged (pET21a) (domain or fragment)”, the Ka in experiment [4] was determined as 6.17e+07 M⁻¹; in experiment [5], 1.56e+06 M⁻¹.

In the case of “ScaC cohesin of R. flavefaciens FD-1 (domain or fragment)”, the Ka in experiment [6] and in experiment [7] was 1e+08 M⁻¹ each time. Also, the stoichiometry N in experiment [6] and in experiment [7] was 1 each time.

For “dockerin of the peptidase ZP_06142181 (Peptidase-UNK-Doc) G11A; R12A”, the other: pEC50 in experiment [3] (parent: est. 8.6) was 8.6.

Regarding “dockerin of ScaH, ZP_06142361 (Coh-Doc) G50A; R51A”, the other: pEC50 in experiment [3] (parent: est. 10.2) was found to be 9.9.

Turning to “dockerin of ScaH, ZP_06142361 (Coh-Doc) G11A; R12A; G50A; R51A”, the other: pEC50 in experiment [3] (parent: est. 10.2) came to 9.1.

“dockerin of the peptidase ZP_06142181 (Peptidase-UNK-Doc) G11A; R12A; G50A; R51A”: the other: pEC50 in experiment [3] (parent: est. 8.6) was 7.6.
